Test results taken from US20180044374A1.

Legend:
[1] = target: human polyclonal IgG (Gammanorm) (human); assay: dynamic binding capacity; matrix I1, ligand 6.1 mg/ml
[2] = target: human polyclonal IgG (Gammanorm) (human); assay: dynamic binding capacity; matrix A65a, ligand 6.1 mg/ml
[3] = target: human polyclonal IgG (Gammanorm) (human); assay: dynamic binding capacity; matrix A63a, ligand 14.0 mg/ml
[4] = target: human polyclonal IgG (Gammanorm) (human); assay: dynamic binding capacity; ligand 20 mg/ml, before 1 M NaOH
[5] = target: human polyclonal IgG (Gammanorm) (human); assay: dynamic binding capacity; matrix B5, ligand 9.6 mg/ml
[6] = target: human polyclonal IgG (Gammanorm) (human); assay: dynamic binding capacity; matrix A33, ligand 7.33 mg/ml
[7] = target: human polyclonal IgG (Gammanorm) (human); assay: dynamic binding capacity; matrix H40, ligand […]
[8] = target: human polyclonal IgG (Gammanorm) (human); assay: dynamic binding capacity; matrix C3, ligand 9.0 mg/ml
[9] = target: human polyclonal IgG (Gammanorm) (human); assay: dynamic binding capacity; matrix A43, ligand 10.51 mg/ml
[10] = target: human polyclonal IgG (Gammanorm) (human); assay: dynamic binding capacity; matrix A42, ligand 6.72 mg/ml
[11] = target: human polyclonal IgG (Gammanorm) (human); assay: dynamic binding capacity; matrix A40, ligand 13.15 mg/ml
[12] = target: human polyclonal IgG (Gammanorm) (human); assay: dynamic binding capacity; matrix A40, ligand 11.03 mg/ml
[13] = target: human polyclonal IgG (Gammanorm) (human); assay: dynamic binding capacity; matrix A32, ligand 13.3 mg/ml
[14] = target: human polyclonal IgG (Gammanorm) (human); assay: dynamic binding capacity; matrix A39, ligand 6.96 mg/ml
[15] = target: human polyclonal IgG (Gammanorm) (human); assay: dynamic binding capacity; matrix A62a, ligand 6.4 mg/ml
[16] = target: human polyclonal IgG (Gammanorm) (human); assay: dynamic binding capacity; matrix C1, ligand […]
[17] = target: human polyclonal IgG (Gammanorm) (human); assay: dynamic binding capacity; matrix A63a, ligand 6.6 mg/ml
[18] = target: human polyclonal IgG (Gammanorm) (human); assay: dynamic binding capacity; matrix A39, ligand 7.0 mg/ml
[19] = target: human polyclonal IgG (Gammanorm) (human); assay: dynamic binding capacity; matrix A27, ligand […]
[20] = target: human polyclonal IgG (Gammanorm) (human); assay: dynamic binding capacity; matrix A65a, ligand 13.6 mg/ml
[21] = target: human polyclonal IgG (Gammanorm) (human); assay: dynamic binding capacity; ligand 13 mg/ml, before 1 M NaOH
[22] = target: human polyclonal IgG (Gammanorm) (human); assay: dynamic binding capacity; ligand 16 mg/ml, before 1 M NaOH
[23] = target: human polyclonal IgG (Gammanorm) (human); assay: dynamic binding capacity; matrix A41, ligand 13.0 mg/ml
[24] = target: human polyclonal IgG (Gammanorm) (human); assay: dynamic binding capacity; ligand 12 mg/ml, before 1 M NaOH
[25] = target: human polyclonal IgG (Gammanorm) (human); assay: dynamic binding capacity; matrix A27, ligand 7.5 mg/ml
[26] = target: human polyclonal IgG (Gammanorm) (human); assay: dynamic binding capacity; matrix C4, ligand […]
[27] = target: human polyclonal IgG (Gammanorm) (human); assay: dynamic binding capacity; matrix B5, ligand 6.3 mg/ml
[28] = target: human polyclonal IgG (Gammanorm) (human); assay: dynamic binding capacity; matrix A65a, ligand 6.6 mg/ml
[29] = target: human polyclonal IgG (Gammanorm) (human); assay: dynamic binding capacity; matrix A40, ligand 13.2 mg/ml
[30] = target: human polyclonal IgG (Gammanorm) (human); assay: dynamic binding capacity; matrix A28, ligand 15.8 mg/ml
[31] = target: human polyclonal IgG (Gammanorm) (human); assay: dynamic binding capacity; matrix A39, ligand 10.5 mg/ml
[32] = target: human polyclonal IgG (Gammanorm) (human); assay: dynamic binding capacity; matrix I1, ligand 11.2 mg/ml

Substance: Zvar(Q9A, N11E, Q40V, A42K, N43A, L44I)4 (designed binder)
- Qb10% 2.4 min [1]: 45 mg/mL
- Qb10% 6 min [1]: 51 mg/mL
- Qb10% 2.4 min [2]: 40 mg/mL
- Qb10% 6 min [2]: 44 mg/mL
- Qb10% 2.4 min [3]: 48 mg/mL
- Qb10% 6 min [3]: 56 mg/mL
- Qb10%, 6 min, before incubation [4]: 73 mg/mL
- Qb10% 2.4 min [5]: 45 mg/mL
- Qb10% 6 min [5]: 47 mg/mL
- Qb10% 2.4 min [6]: 48.7 mg/mL
- Qb10% 6 min [6]: 55.8 mg/mL
- Qb10% 2.4 min [7]: 47 mg/mL
- Qb10% 6 min [7]: 52 mg/mL
- Qb10% 2.4 min [8]: 49 mg/mL
- Qb10% 6 min [8]: 62 mg/mL
- Qb10% 2.4 min [9]: 31.8 mg/mL
- Qb10% 6 min [9]: 58 mg/mL
- Qb10% 2.4 min [10]: 33.6 mg/mL
- Qb10% 6 min [10]: 50 mg/mL
- Qb10% 2.4 min [11]: 56.9 mg/mL
- Qb10% 6 min [11]: 71.1 mg/mL
- Qb10% 2.4 min [12]: 55 mg/mL
- Qb10% 6 min [12]: 73.8 mg/mL
- Qb10% 2.4 min [13]: 37 mg/mL
- Qb10% 6 min [13]: 66 mg/mL
- Qb10% 2.4 min [14]: 41.9 mg/mL
- Qb10% 6 min [14]: 54.7 mg/mL
- Qb10% 2.4 min [15]: 43 mg/mL
- Qb10% 6 min [15]: 45 mg/mL
- Qb10% 2.4 min [16]: 38 mg/mL
- Qb10% 6 min [16]: 47 mg/mL
- Qb10% 2.4 min [17]: 40 mg/mL
- Qb10% 6 min [17]: 44 mg/mL
- Qb10% 2.4 min [18]: 42 mg/mL
- Qb10% 6 min [18]: 55 mg/mL
- Qb10% 2.4 min [19]: 24.8 mg/mL
- Qb10% 6 min [19]: 55.6 mg/mL
- Qb10% 2.4 min [20]: 52 mg/mL
- Qb10% 6 min [20]: 61 mg/mL
- Qb10%, 6 min, before incubation [21]: 79 mg/mL
- Qb10%, 6 min, before incubation [22]: 73 mg/mL
- Qb10% 2.4 min [23]: 35 mg/mL
- Qb10% 6 min [23]: 62.2 mg/mL
- Qb10%, 6 min, before incubation [24]: 78 mg/mL
- Qb10% 2.4 min [25]: 29.2 mg/mL
- Qb10% 6 min [25]: 48.7 mg/mL
- Qb10% 2.4 min [26]: 59 mg/mL
- Qb10% 6 min [26]: 67 mg/mL
- Qb10% 2.4 min [27]: 32 mg/mL
- Qb10% 6 min [27]: 38 mg/mL
- Qb10% 2.4 min [28]: 42 mg/mL
- Qb10% 6 min [28]: 47 mg/mL
- Qb10% 2.4 min [29]: 57 mg/mL
- Qb10% 6 min [29]: 71 mg/mL
- Qb10% 2.4 min [30]: 37 mg/mL
- Qb10% 6 min [30]: 67 mg/mL
- Qb10% 2.4 min [31]: 44 mg/mL
- Qb10% 6 min [31]: 65 mg/mL
- Qb10% 2.4 min [32]: 57 mg/mL
- Qb10% 6 min [32]: 68 mg/mL
